Laboratory results taken from article PMC3778244 (Genes & Development, 2013).

T1: Poz1 (recombinant) (S. pombe, UniProt O13852 1-249)
T1 sequence: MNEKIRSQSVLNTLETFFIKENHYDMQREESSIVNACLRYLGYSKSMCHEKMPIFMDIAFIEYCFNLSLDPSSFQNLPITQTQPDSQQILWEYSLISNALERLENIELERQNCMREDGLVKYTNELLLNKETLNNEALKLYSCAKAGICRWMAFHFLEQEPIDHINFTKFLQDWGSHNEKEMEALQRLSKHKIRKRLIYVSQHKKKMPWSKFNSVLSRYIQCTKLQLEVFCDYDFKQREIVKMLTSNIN

T2: Ccq1 N-terminal domain (Ccq1-NTD; residues 2-439) (S. pombe, UniProt Q10432 2-439)
T2 sequence: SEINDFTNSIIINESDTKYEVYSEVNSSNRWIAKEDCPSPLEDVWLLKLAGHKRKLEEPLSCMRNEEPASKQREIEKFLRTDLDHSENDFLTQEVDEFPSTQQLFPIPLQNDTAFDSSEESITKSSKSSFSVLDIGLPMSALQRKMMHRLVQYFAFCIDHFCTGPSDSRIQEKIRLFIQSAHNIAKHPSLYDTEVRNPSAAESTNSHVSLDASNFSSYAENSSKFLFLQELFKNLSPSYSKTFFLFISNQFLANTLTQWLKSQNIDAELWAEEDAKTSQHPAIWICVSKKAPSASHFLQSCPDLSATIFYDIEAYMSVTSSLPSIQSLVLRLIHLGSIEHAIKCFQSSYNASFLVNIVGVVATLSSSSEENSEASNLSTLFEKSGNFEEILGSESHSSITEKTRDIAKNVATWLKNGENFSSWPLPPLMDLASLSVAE


Legend:
Poz1 (recombinant) = biological target: T1, Poz1 (recombinant); experiment: pull-down
[1] = biological target: T2, Ccq1 N-terminal domain (Ccq1-NTD; …); experiment: pull-down

Row | binding result (Poz1 (recombinant)) | binding result [1] | Binder
1 | binds | binds | GST-Tpz1-CTD (Tpz1 C-terminal domain, residues 406-508) (domain or fragment) SSVISCTPPAINFTSDICNEQIELEYKRKPIPDYDFMKGLETTLQELYVEHQSKKRRLELFQLTNNHQKNSEACEMCRLGLPHGSFFELLRDWKKIEEFRNKS
2 | binds |  | GST-Tpz1-CTD L449A (domain or fragment) SSVISCTPPAINFTSDICNEQIELEYKRKPIPDYDFMKGLETTAQELYVEHQSKKRRLELFQLTNNHQKNSEACEMCRLGLPHGSFFELLRDWKKIEEFRNKS
3 |  | binds | GST-Tpz1-CTD I501R (domain or fragment) SSVISCTPPAINFTSDICNEQIELEYKRKPIPDYDFMKGLETTLQELYVEHQSKKRRLELFQLTNNHQKNSEACEMCRLGLPHGSFFELLRDWKKREEFRNKS
